Experimental data reported in patent US20050142101A1.

Tests used:
[1] = target: CCL14[9-74] (human) (UniProt Q16627)
[2] = target: CCL11 (eotaxin) (Homo sapiens (Human)) (UniProt P51671)
[3] = target: CXCL12 (SDF-1α) (Homo sapiens (Human)) (UniProt P48061)

“porcine kidney DPP IV/CD26 (from UniProt P22411) (enzyme)” was tested, and the CD26/DPP IV processing in vitro, MALDI mass spectrometry (time to complete processing) [1] was 12 h, the CD26/DPP IV processing in vitro, MALDI mass spectrometry (time to complete processing) [2] was 1 h and the CD26/DPP IV processing in vitro, MALDI mass spectrometry (time to complete processing) [3] was 10 min.
